The results in this text go back to US20090304651A1 (published 2009).

The target in test [1] is T1, recombinant human IGF-II (Insulin-like Growth Factor II) (human, UniProt P01344 25-91, biotinylated (Biotinyl-IGF-II, GroPep) where immobilised in SPR, site not stated; not biotinylated in ITC and as SPR analyte).
T1 construct: also called IGF2; IGF-2
The experiment in a line: SPR, IGF-II immobilised, kinetic fit. The protocol:
(§1) Duplicate analyte injections were performed at concentrations of 4096, 2048, 1024, 512, 256, 128, 64, 32, 16 and 8 nM.
(§2) Kinetic analysis by Surface Plasmon Resonance (SPR) was conducted on a BIAcore 3000 biosensor (BIAcore, Uppsala, Sweden) at 25° C. in HBS-EP (10 mM HEPES, pH 7.4, 150 mM NaCl, 3 mM EDTA, 0.005% surfactant P20) at a flow rate of 40 μl/min. […] Kinetic experiments consisted of a two minute injection of analyte followed by a 100 s dissociation phase in running buffer, after which the binding surface was regenerated with a 2 minute injection of 2 M MgCl₂. A blank flow cell was used for in-line reference subtraction of changes due to differences in refractive index of running buffer versus sample and a buffer-only injection was used to subtract instrument noise and drift. Injections were performed in duplicate for each concentration and in a randomised order. Kinetic parameters were determined by global fitting of sensorgrams to a two-state (conformational change) binding model using BIAevaluation software version 4.0.1. In all cases the minor component made an insignificant contribution to the overall affinity and as such only the kinetic parameters of the major binding component were used. For each interaction the dissociation affinity constant (KD) was also calculated by fitting of the response of each concentration at equilibrium to a steady-state affinity model using BIAevaluation.
A general note: In SPR one partner is held on a chip, and binding of the other changes the refractive index at the surface.

In test [2] the target is T1, recombinant human IGF-II (Insulin-like …). Description: SPR, IGF-II immobilised, kinetic fit. Summed up: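 Biotinylated IGF-II (~50 RU) was captured on a streptavidin Sensor Chip SA, and domain 11 proteins, secreted from Pichia pastoris and purified by His-tag, were injected over it in duplicate and in randomised order. A BIAcore 3000 was run at 25° C in HBS-EP at 40 μl/min, with 2 min injections, 100 s dissociation and regeneration with 2 M MgCl₂. Analyte concentrations spanned 4096–8 nM, or 16384–32 nM for three constructs. After subtraction of blank flow cell and buffer injection signals, association rates, dissociation rates and Kd were obtained by global fitting of sensorgrams in BIAevaluation 4.0.1.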
This is another data set of the same source.

Test [3] has the same target. Description: SPR, IGF-II immobilised, steady state. As for the experimental part:
as §1, §2

For test [4] the target is unchanged. The experiment in a line: SPR, IGF-II immobilised, steady state. The procedure, abridged: (§3)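 Biotinylated IGF-II (~50 RU) on a streptavidin Sensor Chip SA served as the surface for duplicate injections of His-tag-purified domain 11 proteins made by secretion in Pichia pastoris. On a BIAcore 3000 at 25° C, 2 min injections in HBS-EP flowed at 40 μl/min over a range of 4096–8 nM, or 16384–32 nM for three constructs. After subtracting the blank flow cell and buffer injections, equilibrium responses were fitted in BIAevaluation to a steady-state affinity model to give Kd, with relative affinity referenced to the unaltered domain 11 protein.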
This is another data set of the same source.

Test [5] shares this target. The experiment in a line: SPR, steady-state KD relative to wild type. The protocol: as §1, §2
The target is the same in test [6]. The experiment in a line: SPR, steady-state KD relative to wild type. The procedure, abridged: as §3
The source holds these as a separate data set.

Test [7] has the same target. Description: SPR, IGF-II immobilised. As for the experimental part: (§4) Kinetic experiments consisted of a two minute injection of analyte followed by a 100 s dissociation phase in running buffer, after which the binding surface was regenerated with a 2 minute injection of 2 M MgCl₂. A blank flow cell was used for in-line reference subtraction of changes due to differences in refractive index of running buffer versus sample and a buffer-only injection was used to subtract instrument noise and drift. Injections were performed in duplicate for each concentration and in a randomised order. Kinetic parameters were determined by global fitting of sensorgrams to a two-state (conformational change) binding model using BIAevaluation software version 4.0.1. In all cases the minor component made an insignificant contribution to the overall affinity and as such only the kinetic parameters of the major binding component were used. For each interaction the dissociation affinity constant (KD) was also calculated by fitting of the response of each concentration at equilibrium to a steady-state affinity model using BIAevaluation. In order to investigate the influence of ionic strength, kinetic experiments were conducted in HBS-EP running buffers containing the desired NaCl concentration. In each case, analyte samples were made up in the appropriate running buffer prior to injection.
(§5) The affinity of versions of Fc-tagged domain 11 fusion proteins, and domain 11 constructs, for IGF-II were compared using surface plasmon resonance (BIAcore 3000). Attempts were made to immobilize Fc-tagged domain 11 proteins upon a sensor chip surface (CM5 and CM5-proteinA) but we encountered similar problems as described above with immobilised monomeric domain 11. Instead, immobilisation of biotinylated IGF-I and IGF-II on separate flow cells of a streptavidin coated sensor chip (BIAcore) generated reproducible sensorgram profiles when Fc-tagged and untagged domain 11 proteins were passed over the surface as analytes. The Fc-tagged domain 11 kinetic data performed in triplicate generated sensorgrams that were analyzed using a bivalent analyte model.

Test [8] concerns the target T2, recombinant human IGF-I (Insulin-like Growth Factor I) (human, UniProt P05019 49-118, biotinylated (Biotinyl-IGF-I, GroPep), site not stated).
T2 construct: also called IGF1; Biotinyl-IGF-I
Description: SPR, biotinylated IGF-I immobilised. The protocol:
as §4, §5

In test [9] the target is T1, recombinant human IGF-II (Insulin-like …). The experiment in a line: SPR (Biacore).
For test [10] the target is unchanged. Description: ITC, IGF-II titrated into domain 11. As for the experimental part: Calorimetric measurements were performed using a VP-ITC microcalorimeter (MicroCal). All solutions were thoroughly degassed before use by stirring under vacuum. […] The sample cell contained either wild type domain 11 (7 uM) or the E1544A mutant (8 μM), also in HBS-E buffer. To correct for the heat effects of dilution and mixing, reaction heats obtained from a control experiment, in which IGF2 was injected into HBS-E, were subtracted. Calorimetric data were analysed using MicroCal ORIGIN software (version 5.0) supplied with the instrument. Thermodynamic parameters were derived by fitting the binding isotherms to a single-site binding model. Values for dissociation affinity constants (KD) were determined from duplicate experiments.
In order to validate the SPR sensorgram data, ITC was used to assess the binding affinity between domain 11 and IGF-II. The affinity of the E1544A mutant was also assessed by ITC in order to confirm whether use of a second technique agreed as to the apparent increase in affinity (FIG. 6 and Table 6). Titrations were performed using 17×15 μl injections of 40 μM IGF-II (after an initial 7.51 injection) into the reaction cell containing wild type domain 11 or the E1544A mutant. […] The two fold differences may be simply accounted for by the fidelity of both techniques.

Test [11] has the same target. The experiment in a line: SPR, IGF-II immobilised, kinetic fit. The protocol: as §2, with “BIAevaluation. In order to investigate the influence of ionic strength, kinetic experiments were conducted in HBS-EP running buffers containing the desired NaCl concentration. In each case, analyte samples were made up in the appropriate running buffer prior to injection.” for “BIAevaluation.”
(§6) Following purification, the binding of each mutant construct to IGF2 was assessed by SPR and compared to the wild type domain 11. Sensorgrams were generated using biotinylated IGF2 immobilised to the cell surface and mutant domain 11 proteins as the free analyte (FIG. 4).
This is another data set of the same source.

Test [12] has the same target. Description: SPR, IGF-II immobilised, steady state. As for the experimental part:
as §2, with “BIAevaluation. In order to investigate the influence of ionic strength, kinetic experiments were conducted in HBS-EP running buffers containing the desired NaCl concentration. In each case, analyte samples were made up in the appropriate running buffer prior to injection.” for “BIAevaluation.”
as §6
The source holds these as a separate data set.

Test [13] shares this target. Description: SPR, steady-state KD relative to wild type. As for the experimental part:
[…]. Values are the mean±S.E.M. of three separate experiments.
as §2, with “BIAevaluation. In order to investigate the influence of ionic strength, kinetic experiments were conducted in HBS-EP running buffers containing the desired NaCl concentration. In each case, analyte samples were made up in the appropriate running buffer prior to injection.” for “BIAevaluation.”
Following purification, the binding of each mutant construct to IGF2 was assessed by SPR and compared to the wild type domain 11.
The source holds these as a separate data set.

Substitutions are numbered along the chain they refer to. In names and notes the source's numbering stands. Like-named read-outs stand apart in the source and are kept apart here.

T1 sequence (P01344 25-91 limits assumed): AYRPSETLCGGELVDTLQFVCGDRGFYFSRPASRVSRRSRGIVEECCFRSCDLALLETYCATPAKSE
T2 sequence (P05019 49-118 limits assumed): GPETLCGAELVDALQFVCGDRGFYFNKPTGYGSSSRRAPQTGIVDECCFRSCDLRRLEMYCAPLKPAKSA

B1: IGF2R domain 11 E1544V (amino acids 1511-1650, C-terminal His6 tag, from Pichia pastoris) (receptor)
chain: NEHDDCQVTNPSTGHLFDLSSLSGRAGFTAAYSVKGLVYMSICGENENCPPGVGACFGQTRISVGKANKRLRYVDQVLQLVYKDGSPCPSKSGLSYKSVISFVCRPEAGPTNRPMLISLDKQTCTLFFSWHTPLACEQATHHHHHH
In the case of B1, the Kd (as a rule, a measure of binding affinity in units of concentration) was determined as 49.8 nM in test [1], 60.5 nM in test [2], 52.7 nM in test [3] and 52.7 nM in [4]. Further, the koff (as a rule, the rate constant with which the complex falls apart) amounted to 0.041 s⁻¹ in test [1] and 0.0675 s⁻¹ in test [2]. In addition, the kon – broadly, the second-order rate constant of association – in test [1] turned out to be 837000 M⁻¹ s⁻¹; in test [2], 1.12e+06 M⁻¹ s⁻¹. The “Relative Affinity” value in test [5] and in test [6] was 1.96 fold (wild type = 1.00) throughout.

B2: IGF2R domain 11 with cysteine at position 1544 (E1544C) (receptor)
chain: B1 chain with V34C
B2: the binding result in [7] is on record as “binds”.

B3: IGF2R domain 11 I1572A (amino acids 1511-1650, C-terminal His6 tag, from Pichia pastoris) (receptor)
chain: B1 chain with V34E, I62A
notes: also called null mutant
For the molecule B3, the binding result in test [8] is given as “no binding (tested: 16384 nM highest analyte concentration)”.

B4: IGF2R domain 11 Q1569A (amino acids 1511-1650, C-terminal His6 tag, from Pichia pastoris) (receptor)
chain: B1 chain with V34E, Q59A
Take B4: the Kd in test [9] came out at 130 nM; in test [10], 209 nM; in [11] it was 130 nM; in test [12], 130 nM. Also, in test [11], the off-rate constant (koff) was 0.069 s⁻¹. Further, the kon in [11] amounted to 529000 M⁻¹ s⁻¹. Also, in [13], the “Relative Affinity” value was 0.8 fold (wild type = 1.00).

B5: IGF2R domain 11 S1596A (amino acids 1511-1650, C-terminal His6 tag, from Pichia pastoris) (receptor)
chain: B1 chain with V34E, S86A
B5: the dissociation constant Kd in test [9] turned out to be 170 nM; in test [10], 324 nM; in test [11], 179 nM; in [12], 170 nM. In addition, the koff in [11] came out at 0.079 s⁻¹. Further, the kon in [11] stood at 441000 M⁻¹ s⁻¹. The “Relative Affinity” value in test [13] is 0.61 fold (wild type = 1.00).
